Laboratory results reported in the supplement of paper PMC10126150.
± gives the standard deviation of the averaged measurements.

Test system: ATP
Test: switch fluorescence ratio, 500 uM ATP over buffer (Cy3 cluster intensity, sum of 5 cycles each) (fold (ratio)); higher = stronger signal-on switching upon ATP binding; sequences stand for … in TCGTCGGCAGCGTCAGATGTGTATAAGAGACAGTTTTTTTTTTTTTTTTTTTTTTTTT…TC
Settings: aptamer strand: ATP DNA aptamer (quencher-CACCTGGGGGAGTATTGCGGAGGAAGG + anchor), 100 nM annealed; ATP concentration: 500 uM
How it was run: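 Per cluster, summed Cy3 intensity from the target cycles was divided by that from the buffer cycles to give the fluorescence ratio, then averaged per switch-domain sequence. Clusters outside 100-1000 RFU were excluded. The Cy3-labelled switching-strand clusters, on a modified Illumina MiSeq flow-cell, were annealed to 100 nM quencher-labelled ATP aptamer and imaged in selection buffer, then after 15 min with 500 uM ATP at 22 °C, for five cycles with NaOH stripping and re-annealing between them.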
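Also: ATP exposure 15 min at 22 °C before imaging.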

Sequence	switch fluorescence ratio
GTGCCCACGT	1 ± 0.039
ATGACGCGGA	1.048 ± 0.0097
CATTAAGTCT	1.02 ± 0.036
AGGGAGGTTT	0.944 ± 0.073
ATGTGGGGGA	1.02 ± 0.015
GTTTTTTTTA	0.989 ± 0.037
TGGCGCTTTT	0.9976 ± 0.0079
CTGCAAGCGG	1.28 ± 0.057
TTTTTATTCG	0.994 ± 0.019
TCAGGATGGA	1 ± 0.018
AAAGGGGAGT	1.04 ± 0.11
TAGGGTGTGT	0.952 ± 0.016
GGGTATGTCC	0.989 ± 0.026
TATACGTGCC	1.03 ± 0.025
TATTAAGGA	0.9762 ± 0.009
ATACTACGGA	1.03 ± 0.062
AAGGGGTGAC	0.977 ± 0.041
GAATAAGATC	1.02 ± 0.042
GCCAGGGCTT	1.03 ± 0.036
TTTGGATTTG	1.03 ± 0.027
AATTCGTGAA	1.01 ± 0.013
AGGTTTTTTG	0.995 ± 0.016
GCATTAAAGT	0.958 ± 0.033

Sequence	switch fluorescence ratio
AATGGAATTG	0.9965 ± 0.005
TATAGTACGG	1.049 ± 0.0095
GCACACCGAG	1.083 ± 0.0059
TTTAGATACG	1.05 ± 0.014
GGATTAGGTG	1.12 ± 0.017
CTGGTATGCG	0.969 ± 0.054
CAGTTTTATC	1.012 ± 0.0039
TTATCAATGG	1.01 ± 0.078
CGTGTAGTTG	1.02 ± 0.026
GCTAGTAGTC	1.01 ± 0.046
GATGTCGAGA	1.019 ± 0.0051
GGGTATAGGG	1.01 ± 0.037
GTCGAGAGAA	1.01 ± 0.011
CCGCTTCCGG	1.08 ± 0.018
TTAGGGATAT	1.22 ± 0.42
TAATGCGGTT	1.016 ± 0.004
ACTAAGGGGA	1.03 ± 0.0058
CTAATAATAT	1.01 ± 0.025
TTAAGGATAC	1.15 ± 0.21
GCGGGCCGTC	1.03 ± 0.023
GTCGTTCTGA	0.99257 ± 0.00085
TCGGGGTTA	0.979 ± 0.029
GAGCGGATTT	1.03 ± 0.019

Sequence	switch fluorescence ratio
TCGGGAGGGG	0.989 ± 0.033
TCATGGTGAT	1.022 ± 0.0013
GGTTCAGTG	0.9936 ± 0.0079
TGCTCTACCT	1.18 ± 0.057
GATTATCTCG	0.99 ± 0.049
CATAGTGTTT	1.01 ± 0.012
TTTTTCTACG	1.2 ± 0.28
TTCAATTTCC	1.01 ± 0.028
CAAAAATTGG	1 ± 0.041
ACAGATAAAG	0.97 ± 0.045
TATTGAGTTA	1.01 ± 0.033
GTTTGTTTTT	0.976 ± 0.032
GGGATGTTTT	0.991 ± 0.012
ATTGATACTA	1.03 ± 0.021
AAGGGAACTC	1.03 ± 0.02
GCGTTGGGTC	1.02 ± 0.014
GGGGGTAAGT	1.01 ± 0.02
CTCAGGGATT	1.07 ± 0.033
GATCATGGGA	1.03 ± 0.093
TCGTGTTCTG	1.01 ± 0.029
CTAAAGTGTG	0.9858 ± 0.0098
GGTAATTGGG	1.19 ± 0.27
TTCGGGTTTT	1 ± 0.033

Sequence	switch fluorescence ratio
ATTGTCGGCT	1.05 ± 0.18
TAAAGAGTAG	1 ± 0.042
CGTTAAGAAA	0.994 ± 0.016
AGGGGTTGGT	0.983 ± 0.027
CATGGTTCTG	1.02 ± 0.027
TAATGCCTGC	1 ± 0.093
GGGAAGGCGG	1.02 ± 0.027
GAATTGGTAA	1.013 ± 0.0076
ATCGTGTTTG	0.952 ± 0.043
GTTGTGTGTA	0.9921 ± 0.0082
TTATACGTCG	1.01 ± 0.023
GAAAAAAGCG	1.01 ± 0.041
CAGGAATGCG	1.04 ± 0.055
TATATGGTCC	0.9841 ± 0.0083
TATAAGTGAT	1.17 ± 0.26
TTGCATATAG	1.3 ± 0.065
TTAAAGGGGA	1.04 ± 0.049
TGATACGGGG	1.01 ± 0.026
TTTGGTAATT	1.03 ± 0.034
TATACTACGG	1.09 ± 0.024
TCGGTTAGT	0.96 ± 0.054
ACGTCAAGTA	0.985 ± 0.022
TACGTGTTTG	1.01 ± 0.033

Sequence	switch fluorescence ratio
AGGGGGGCCG	1.08 ± 0.019
AATATGTTTT	1.01 ± 0.026
GTCTGAAGGA	0.9791 ± 0.0055
TAGTGCGCGC	1.03 ± 0.025
GGTGGGACGG	0.991 ± 0.039
CGTACAATGG	1.28 ± 0.088
AGGTTTGATC	1.006 ± 0.0096
TGGCTCTCAT	1.02 ± 0.017
GCGGCCGAGG	1.02 ± 0.041
CGGTAAATAA	1.01 ± 0.021
CGTTGCGAAA	1.02 ± 0.031
GGCATTGGAT	0.962 ± 0.034
CTGGTATACG	1.06 ± 0.055
TGGTAAAATT	1.031 ± 0.01
TCGGCCATGG	0.985 ± 0.031
TTTGGAAGTT	0.9817 ± 0.0035
GGGGTGTACA	0.969 ± 0.027
TTTTGATTGA	1.03 ± 0.034
TATGTTGTAT	0.984 ± 0.053
GAATCAGGG	0.972 ± 0.034
CTCCTGGCCA	1.13 ± 0.014
TGGGTAAACA	1.02 ± 0.012
TAAAATACTT	1.11 ± 0.16

Sequence	switch fluorescence ratio
TCAGTGCTGT	1 ± 0.035
TGGTAGTTCG	1.01 ± 0.046
GGTTACTTTA	1.07 ± 0.064
TATGATCTGT	0.979 ± 0.021
TCTTGGTAAT	0.996 ± 0.018
ACATATTTTG	1.01 ± 0.033
TAAAAGGACC	1.09 ± 0.023
GCCCAAGAGT	1.04 ± 0.02
TATTTGGTGG	1.02 ± 0.027
AATTAAATA	0.979 ± 0.037
CTAGTGGGTT	0.973 ± 0.02
GTTTCAGTGT	0.972 ± 0.021
GCGGTGCTTG	0.9901 ± 0.0071
TGGGAGGGTG	1.02 ± 0.067
TCTCCAGGAA	1.62 ± 0.3
TTGCACGGTT	1.04 ± 0.06
TTCCCCCTTT	1.45 ± 0.58
TGGGATTTTC	1.03 ± 0.067
GCTGTTTTTA	0.981 ± 0.022
AAAACGACAG	1.04 ± 0.013
GACTGAGAAG	0.945 ± 0.011
TTATTAAGGT	1.01 ± 0.031
TGGGGAACGG	0.981 ± 0.031

Sequence	switch fluorescence ratio
GGGGAAACGT	1.12 ± 0.035
ATTAGTCCGA	0.9917 ± 0.0089
CGAAGGGGGG	1.03 ± 0.087
AAGGAGGATG	0.995 ± 0.042
ATGGGGCAGC	1 ± 0.025
ACTTTTTTAG	0.992 ± 0.019
TGAAAAGGTT	0.983 ± 0.023
GAGGGAAAGG	1.02 ± 0.052
CGGTTTCCGC	1.04 ± 0.022
GTATTTGGGG	0.985 ± 0.034
AAGGTCGGGT	1.01 ± 0.043
CGAGAAGAGA	1.01 ± 0.013
AGTGCGTTTC	0.996 ± 0.031
TTTTCGCTTT	1.09 ± 0.17
AGTTGAACCA	1 ± 0.012
ATCGCCATCC	1.235 ± 0.0026
CAGCGTTGTT	0.993 ± 0.018
ACCTAGTAAA	0.987 ± 0.025
ATATACGTTG	1.03 ± 0.011
